From paper PMC6793440 (Journal of Experimental Botany, 2019)

Target: T1, His-labeled kinase domain of CEPR2 (CEPR2^KD-His, amino acids 642–977) (Arabidopsis thaliana, UniProt Q9C7T7 642-977)
T1 sequence: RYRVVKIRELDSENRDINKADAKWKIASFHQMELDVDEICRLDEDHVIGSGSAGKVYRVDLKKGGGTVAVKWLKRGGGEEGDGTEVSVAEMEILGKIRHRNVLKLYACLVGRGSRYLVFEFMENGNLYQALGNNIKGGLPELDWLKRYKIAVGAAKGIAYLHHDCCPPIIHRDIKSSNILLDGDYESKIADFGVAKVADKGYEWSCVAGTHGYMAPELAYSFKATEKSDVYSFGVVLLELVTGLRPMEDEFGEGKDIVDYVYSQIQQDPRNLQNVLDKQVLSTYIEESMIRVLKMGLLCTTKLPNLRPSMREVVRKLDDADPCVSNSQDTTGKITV
Experiment: pull-down

B1: GST-tagged PYL4 (PYL4–GST) (receptor)
chain: MLAVHRPSSAVSDGDSVQIPMMIASFQKRFPSLSRDSTAARFHTHEVGPNQCCSAVIQEISAPISTVWSVVRRFDNPQAYKHFLKSCSVIGGDGDNVGSLRQVHVVSGLPAASSTERLDILDDERHVISFSVVGGDHRLSNYRSVTTLHPSPISGTVVVESYVVDVPPGNTKEETCDFVDVIVRCNLQSLAKIAENTAAESKKKMSL
B1: binds.

B2: GST-tagged PYL2 (PYL2–GST) (receptor)
chain: MSSSPAVKGLTDEEQKTLEPVIKTYHQFEPDPTTCTSLITQRIHAPASVVWPLIRRFDNPERYKHFVKRCRLISGDGDVGSVREVTVISGLPASTSTERLEFVDDDHRVLSFRVVGGEHRLKNYKSVTSVNEFLNQDSGKVYTVVLESYTVDIPEGNTEEDTKMFVDTVVKLNLQKLGVAATSAPMHDDE
B2: binds.
